Legend:
[1] = molecular target: 1GS mGRFT (GRFT with GS inserted between Ser16 and Gly17) (Griffithsia sp.) (UniProt P84801); test: AUC
[2] = molecular target: HIV-1 glycoprotein gp120 (HIV-1) (UniProt P04578); test: ITC

| Substance | Kd [1] | Kd [2] | dH [2] |
| --- | --- | --- | --- |
| 1GS mGRFT (GRFT with GS inserted between Ser16 and Gly17) (from UniProt P84801 1-121) (natural protein) | 120 µM |  |  |
| 1GS-S mGRFT (L2S variant of 1GS) (from UniProt P84801 1-121) (natural protein) |  | 0.112 µM | -35.5 kcal/mol |
